Five sequences from article PMC9965484 can be followed below.

For the data set, the target named is Fibroblast activation protein (FAP), recombinant human, carrier-free (BioLegend) (Homo sapiens) (UniProt Q12884). The data set can be described thus: CE-LIF (NECEEM). To be noted: CE-LIF/NECEEM: buffer for Kd not stated, CE separation (SELEX) 20 kV, 25 C, specificity: 10 min at 37 C, PBS pH 7.2 as control, AuNP assay: room temperature ….

As a reminder, the Kd is a measure of binding affinity in units of concentration.

Sequence of UniProt Q12884 (Q12884 whole entry): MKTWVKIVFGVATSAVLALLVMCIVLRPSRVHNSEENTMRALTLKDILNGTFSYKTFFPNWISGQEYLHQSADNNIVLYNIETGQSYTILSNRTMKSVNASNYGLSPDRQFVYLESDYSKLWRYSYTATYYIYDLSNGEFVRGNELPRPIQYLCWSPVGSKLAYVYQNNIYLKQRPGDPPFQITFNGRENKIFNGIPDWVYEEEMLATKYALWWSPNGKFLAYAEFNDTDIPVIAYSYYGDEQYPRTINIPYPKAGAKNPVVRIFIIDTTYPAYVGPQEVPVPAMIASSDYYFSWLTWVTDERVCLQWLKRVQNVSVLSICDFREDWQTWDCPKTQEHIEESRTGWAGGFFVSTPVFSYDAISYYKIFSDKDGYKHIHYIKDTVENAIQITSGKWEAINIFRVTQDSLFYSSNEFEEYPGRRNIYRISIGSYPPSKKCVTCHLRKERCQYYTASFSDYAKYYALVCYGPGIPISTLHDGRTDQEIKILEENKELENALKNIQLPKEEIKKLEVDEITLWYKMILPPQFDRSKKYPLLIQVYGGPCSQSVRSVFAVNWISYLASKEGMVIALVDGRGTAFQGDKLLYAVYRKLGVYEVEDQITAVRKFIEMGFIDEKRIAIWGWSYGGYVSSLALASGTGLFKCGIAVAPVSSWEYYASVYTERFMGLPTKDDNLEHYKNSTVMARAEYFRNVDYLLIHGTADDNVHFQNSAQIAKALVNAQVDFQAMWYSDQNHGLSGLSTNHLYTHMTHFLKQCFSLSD

Take “AGCAGCACAGAGGTCAGATGCCGCAGGCAGCTGCCATTAGTCTCTATCCGTGACGGTATGCCTATGCGTGCTACCGTGAA [AptFAP-A4]”: the Kd is 0.5 µM.

For “AGCAGCACAGAGGTCAGATGGCAGCTAAGCAGGCGGCTCACAAAACCATTCGCATGCGGCCCTATGCGTGCTACCGTGAA [AptFAP-A5]”, the equilibrium dissociation constant (Kd) (exact value only in figure) was over 1 µM. Take “AGCAGCACAGAGGTCAGATGGCCACATTAGTCTCACCACTACCTGCGTACCTACCGCCGCCCTATGCGTGCTACCGTGAA [AptFAP-A2]”: the dissociation constant (Kd) (lowest affinity of the five, exact value only in figure) was over 1 µM. On to “AGCAGCACAGAGGTCAGATGGCCATCCCCCCGTCCGATGAGTGGTGCTCCTATGCGTTCCCCTATGCGTGCTACCGTGAA [AptFAP-A3]”, for which the equilibrium dissociation constant (Kd) (exact value only in figure) was over 1 µM. “AGCAGCACAGAGGTCAGATGGCGAAGCGTACCGGCTACCCAGTGACAGTCGCCGTGGGTCCCTATGCGTGCTACCGTGAA [AptFAP-A1]”: the Kd was 0.5 µM.
